The target of test [1] is T1, mouse FcRn (mouse, UniProt Q61559 22-297).
T1 construct: also called mFcRn
Description: SPR (Biacore); relative to mIgG1. The protocol: (§1) Next, the binding to mFcRn was evaluated according to Reference Example 4-4.
(§2) Kinetic analysis was conducted on mouse FcRn and each antibody using Biacore T100, Biacore T200, Biacore A100, and Biacore 4000 (GE Healthcare Japan Corp.). An appropriate amount of protein L (ACTIGEN) was immobilized on Sensor Chip CM4 (GE Healthcare Japan Corp.) by the amine coupling method. The antibody of interest was captured onto the chip. Next, a diluted FcRn solution or a running buffer (as a control solution) was injected thereto so that the mouse FcRn was allowed to interact with the antibody captured on the sensor chip. The running buffer used was 50 mmol/L sodium phosphate, 150 mmol/L NaCl, and 0.05% (w/v) Tween 20 (pH 6.0), and each buffer was also used for diluting FcRn. 10 mmol/L glycine-HCl (pH 1.5) was used to regenerate the chip. The assay was conducted at 25° C. for all samples. From the sensorgram obtained by the assay, an association rate constant ka (1/Ms) and a dissociation rate constant […] (1/s) were calculated as kinetic parameters. The KD (M) of each antibody for mouse FcRn was calculated on the basis of the parameters. Biacore Evaluation Software (GE Healthcare Japan Corp.) was used in the calculation of each parameter.
(Surface plasmon resonance follows binding to a sensor surface in real time, without labels.)

The target of test [2] is T2, mouse FcgRIII extracellular domain, C-terminal His tag (mouse, UniProt P08508 31-215).
T2 construct: extracellular domain; also called mFcgRIII; mFcγRIII; not shown: C-terminal His tag
T2 sequence (looked up): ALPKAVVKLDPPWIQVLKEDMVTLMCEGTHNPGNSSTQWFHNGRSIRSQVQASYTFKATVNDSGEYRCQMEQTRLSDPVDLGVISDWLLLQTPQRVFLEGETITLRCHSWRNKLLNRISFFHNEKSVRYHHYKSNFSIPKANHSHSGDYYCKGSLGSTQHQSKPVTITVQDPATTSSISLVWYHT
Description: SPR (Biacore), antibody captured on chip, His-tagged mFcgR extracellular domain as analyte, 25 C. The method, then: (§3) The two types of bispecific antibodies (MRAH-mIgG1mP3/MRAL-mk1//H54-mIgG1mN3/L28-mk1 and MRAH-mIgG1mP4/MRAL-mk1//H54-mIgG1mN4/L28-mk1) prepared by mouse IgG-type Fab arm exchange were tested for their binding to mouse FcgR and mouse FcRn according to Reference Example 4-3. Also, MRAH-mIgG1/MRAL-mk1 was prepared according to Reference Example 1 and assayed as a control.

Test [3] concerns the target T3, mouse FcgRII extracellular domain, C-terminal His tag (mouse, UniProt P08101 30-210).
T3 construct: extracellular domain; also called mFcgRII; mFcγRII; not shown: C-terminal His tag
T3 sequence (looked up): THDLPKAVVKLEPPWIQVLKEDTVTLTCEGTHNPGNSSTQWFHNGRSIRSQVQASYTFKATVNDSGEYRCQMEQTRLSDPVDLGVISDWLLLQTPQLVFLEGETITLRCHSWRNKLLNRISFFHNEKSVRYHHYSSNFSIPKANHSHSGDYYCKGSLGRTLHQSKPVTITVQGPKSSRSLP
The description is as above. The protocol:
as §3

The target in test [4] is T1, mouse FcRn. Briefly: SPR (Biacore), antibody captured by protein L, mouse FcRn as analyte, pH 6.0, 25 C. The method, then:
as §1, §2

Test [5] addresses T2, mouse FcgRIII extracellular domain, …. Description: SPR (Biacore); binding activity relative to naturally occurring mIgG1. The method, then: as §3
Test [6] concerns the target T3, mouse FcgRII extracellular domain, …. The test is described as above. The protocol:
as §3

Test [7] deals with T4, mouse FcgRIV extracellular domain, C-terminal His tag (mouse, UniProt A0A0B4J1G0 21-203).
T4 construct: also called mFcgRIV; mFcγRIV
T4 sequence: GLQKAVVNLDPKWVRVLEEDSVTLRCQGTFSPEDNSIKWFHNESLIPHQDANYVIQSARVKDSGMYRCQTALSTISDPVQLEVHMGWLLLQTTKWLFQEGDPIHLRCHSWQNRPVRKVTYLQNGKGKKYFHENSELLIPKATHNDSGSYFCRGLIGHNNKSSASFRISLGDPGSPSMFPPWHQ
Briefly: SPR (Biacore), antibody captured on chip, mFcgR extracellular domain as analyte. The method, then:
as §3

In test [8] the target is T5, mouse FcgRI extracellular domain, C-terminal His tag (mouse, UniProt P26151 25-297).
T5 construct: extracellular domain; also called mFcgRI; mFcγRI; not shown: C-terminal His tag
T5 sequence (looked up): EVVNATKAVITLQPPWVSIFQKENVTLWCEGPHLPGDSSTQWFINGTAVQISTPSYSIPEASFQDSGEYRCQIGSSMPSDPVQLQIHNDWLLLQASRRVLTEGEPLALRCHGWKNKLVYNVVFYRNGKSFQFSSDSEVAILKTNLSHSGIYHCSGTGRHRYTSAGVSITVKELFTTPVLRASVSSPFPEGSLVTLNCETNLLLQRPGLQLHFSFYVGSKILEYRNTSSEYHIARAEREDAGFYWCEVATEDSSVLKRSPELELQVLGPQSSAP
The test is described as above. The method, then: as §3

In test [9] the target is T1, mouse FcRn. Briefly: SPR (Biacore); relative to mIgG1 (the reference itself). The protocol: as §1, §2
Test [10] has as its target T2, mouse FcgRIII extracellular domain, …. The test is described as above. The protocol: as §3
The target of test [11] is T3, mouse FcgRII extracellular domain, …. The test is described as above. The protocol:
as §3

The results in this text go back to patent US20160229915A1 (Chugai, published 2016).

Residue numbers refer to the chain shown, from its start. In names and notes the source's numbering stands.

T1 sequence (Q61559 22-297): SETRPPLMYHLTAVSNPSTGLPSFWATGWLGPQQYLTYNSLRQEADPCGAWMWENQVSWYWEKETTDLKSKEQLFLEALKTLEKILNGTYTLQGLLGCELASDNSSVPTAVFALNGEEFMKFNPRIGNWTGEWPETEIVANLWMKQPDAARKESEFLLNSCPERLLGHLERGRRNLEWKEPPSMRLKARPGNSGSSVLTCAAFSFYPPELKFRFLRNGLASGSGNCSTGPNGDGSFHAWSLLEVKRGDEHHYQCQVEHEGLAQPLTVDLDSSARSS

B1: MRAH-mIgG1mP3/MRAL-mk1//H54-mIgG1mN3/L28-mk1 (bispecific antibody)
heavy 1: QVQLQESGPGLVRPSQTLSLTCTVSGYSITSDHAWSWVRQPPGRGLEWIGYISYSGITTYNPSLKSRVTMLRDTSKNQFSLRLSSVTAADTAVYYCARSLARTTAMDYWGQGSLVTVSSAKTTPPSVYPLAPGSAAQTNSMVTLGCLVKGYFPEPVTVTWNSGSLSSGVHTFPAVLQSDLYTLSSSVTVPSSTWPSETVTCNVAHPASSTKVDKKIVPRDCGCKPCICTVPEVSSVFIFPPKPKDVLTITLTPKVTCVVVDISKDDPEVQFSWFVDDVEVHTAQTQPREEQFNSTFRSVSELPIMHQDWLNGKEFKCRVNSAAFPAPIEKTISKTKGRPKAPQVYTIPPPKEQMAKDKVSLTCMITDFFPEDITVEWQWNGQPAENYKNTQPIMKTDGSYFVYSKLNVQKSNWEAGNTFTCSVLHEGLHNHHTEKSLSHSPGK
light 1: DIQMTQSPSSLSASVGDRVTITCRASQDISSYLNWYQQKPGKAPKLLIYYTSRLHSGVPSRFSGSGSGTDFTFTISSLQPEDIATYYCQQGNTLPYTFGQGTKVEIKRADAAPTVSIFPPSSEQLTSGGASVVCFLNNFYPKDINVKWKIDGSERQNGVLNSWTDQDSKDSTYSMSSTLTLTKDEYERHNSYTCEATHKTSTSPIVKSFNRNEC
heavy 2: QVQLQESGPGLVKPSETLSLTCAVSGYSISDDQAWSWVRQPPGEGLEWIGYISYSGITNYNPSLKGRVTISRDTSKNQFSLKLSSVTAADTAAYYCARSLARTTAMDYWGEGTLVTVSSAKTTPPSVYPLAPGSAAQTNSMVTLGCLVKGYFPEPVTVTWNSGSLSSGVHTFPAVLQSDLYTLSSSVTVPSSTWPSETVTCNVAHPASSTKVDKKIVPRDCGCKPCICTVPEVSSVFIFPPKPKDVLTITLTPKVTCVVVDISKDDPEVQFSWFVDDVEVHTAQTQPREEQFNSTFRSVSELPIMHQDWLNGKEFKCRVNSAAFPAPIEKTISKTKGRPKAPQVYTIPPPKEQMAKDKVSLTCMITDFFPEDITVEWQWNGQPAENYKNTQPIMDTDGSYFVYSDLNVQKSNWEAGNTFTCSVLHEGLHNHHTEKSLSHSPGK
light 2: B1 light 1 with R18S, R24Q, K45E, T51G, R53E, Q79E, P80A, I83A, T93S, K107E
notes: Product of mouse IgG1-type Fab arm exchange (D399K on one H chain, K409D on the other); formation efficiency 89.2%, so the preparation may hold some homo variant; also called mIgG1mP3/mN3; mP3/mN3
The Kd is the free concentration of one partner at which half of the binding sites on the other are occupied at equilibrium, for simple one-to-one binding. A lower Kd goes with tighter binding. B1: in [1], the “fold KD” value worked out at 1.2 fold. Besides, the dissociation constant Kd was found to be 670 nM in test [2], 670 nM in test [3] and 2100 nM in test [4]. Besides, in test [5], the “KD fold mFcgRIII” value came out at 1.2 fold. For the same molecule, the “KD fold mFcgRII” value in test [6] was 1.2 fold. Also, the binding result in test [7] and in test [8] was “no binding” in each case.

B2: MRAH-mIgG1/MRAL-mk1 (antibody)
heavy: B1 heavy 1 with K395D
light: B1 light 1
notes: Control with mouse IgG1 H chain constant region and mouse kappa constant region; also called naturally occurring mIgG1
For the molecule B2, the “fold KD” value in [9] came to 1 fold. For the same molecule, the Kd in test [2] came out at 790 nM; in [3], 820 nM; in [4] it was 2500 nM. The “KD fold mFcgRIII” value in test [10] turned out to be 1 fold. Also, the “KD fold mFcgRII” value in [11] is 1 fold. The binding result in test [7] and in test [8] was “no binding” in each case.

B3: MRAH-mIgG1mP4/MRAL-mk1//H54-mIgG1mN4/L28-mk1 (bispecific antibody)
heavy 1: B1 heavy 1 with K395R
light 1: B1 light 1
heavy 2: B1 heavy 2 with D405E
light 2: B1 light 1 with R18S, R24Q, K45E, T51G, R53E, Q79E, P80A, I83A, T93S, K107E
notes: Product of mouse IgG1-type Fab arm exchange (D399R on one H chain, K409E on the other); formation efficiency 89.9%, so the preparation may hold some homo variant; also called mIgG1mP4/mN4; mP4/mN4
Take B3: the “fold KD” value in test [1] was 1.3 fold. Besides, the Kd in test [2] came out at 680 nM; in test [3] it was 670 nM; in test [4], 1900 nM. Besides, the “KD fold mFcgRIII” value in [5] amounted to 1.2 fold. Besides, in test [6], the “KD fold mFcgRII” value amounted to 1.2 fold. Moreover, the binding result in test [7] and in test [8] was “no binding” each time.
